Substrate in the data set: COc1cc(/C=C/CO)ccc1O
In words: Kinetic characterisation of purified tobacco CAD enzyme. Conditions: other: pure enzyme purified to homogeneity from tobacco stems; specific for NADP; pH 7.5. The data set is classed as biochemical. How it is done:
Six week old tobacco stems were frozen in liquid N, crushed with a hammer and homogenized in a Waring blender in buffer A. The homogenate was centrifuged at 45000×g for 30 min. Solid ammonium sulphate was added to the supernatant to bring it to 70% saturation and proteins were precipitated at 4° C. for 30 min. The precipitate was collected by centrifugation at 10,000 rpm for 1 hour. The pellet was resuspended in a minimum volume of buffer supplemented with 5% ethylene glycol, to reduce the ammonium sulphate concentration to approximately 40% saturation.
The supernatant was desalted and applied to a Blue Sepharose column. The column was washed in at least 6 column volumes buffer including one column volume supplemented with 4 mM NAD. This wash elutes other alcohol dehydrogenases. Specific elution of CAD was performed with a gradient of 0-4 mM NADP in buffer B. CAD-containing fractions were pooled and 5% ethylene glycol was added.
The pooled fractions from Blue Sepharose were applied to an FPLC Mono Q column. The column was washed until the Absorbance dropped to baseline levels. Proteins were eluted in a linear gradient of buffer with 20-400 mM Tris-HCl, pH 7.5.
MonoQ fractions were applied to a column of 2'5'ADP-Sepharose. The column was washed with 6 column volumes buffer including one column volume supplemented with 4 mM NAD. […]

B1: tobacco cinnamyl alcohol dehydrogenase (CAD, E.C. 1.1.1.195), purified from tobacco stems (Nicotiana tabacum) (protein)
chain 1: MGSLDVEKSAIGWAARDPSGLLSPYTYTLRNTGPEDVQVKVLYCGLCHSDLHQVKNDLGMSNYPLVPGHEVVGKVVEVGADVSKFKVGDTVGVGLLVGSCRNCGPCKREIEQYCNKKIWNCNDVYTDGKPTQGGFANSMVVDQNFVVKIPEGMAPEQAAPLLCAGITVYSPFNHFGFNQSGFRGGILGLGGVGHMGVKIAKAMGHHVTVISSSNKKRQEALEHLGADDYLVSSDTDKMQEAADSLDYIIDTVPVGHPLELYLSLLKIDGKLILIGVINTPLQFISPMVMLGRKSITGSFIGSMKETEEMLDFCKEKGVTSQIEIVKMDYINTAMERLEKNDVSYRFVVDVAGSKLDQ
chain 2: MGGLEVEKTTIGWAARDPSGVLSPYTYTLRNTGPEDVEVKVLYCGLCHTDLHQVKNDLGMSNYPLVPGHEVVGEVVEVGPDVSKFKVGDTVGVGLLVGSCRNCGPCKRDIEQYCNKKIWNCNDVYTDGKPTQGGFAKSMVVDQKFVVKIPEGMAPEQAAPLLCAGITVYSPLNHFGFKQSGLRGGILGLGGVGHMGVKIAKAMGHHVTVISSSNKKRQEALEHLGADDYLVSSDTDKMQEASDSLDYIIDTVPVGHPLEPYLSLLKIDGKLILMGVINTPLQFISPMVMLGRKSITGSFIGSMKETEEMLDFCKEKGVTSQIEIVKMDYINTAMERLEKNDVRYRFVVDVIGSKLDQ
notes: Using this protocol tobacco CAD was purified to homogeneity; from tissue; host or cells: stems of six week old tobacco plants
For B1, the Km is 12 µM.

What is called Km is the concentration of substrate that gives half-maximal velocity.

(Values after US6066780A, “Modification of lignin synthesis in plants” (Zeneca Limited, priority 1991, dated 2000).)
